Assays:
[1] = biological target: carbonic anhydrase II protein (Sigma Aldrich, C2522) (Bos taurus, UniProt P00921); assay: SPR
[2] = biological target: PTPRZ1 CA protein (Cusabio Technology LLC, CSB-YP019068HU) (Homo sapiens, UniProt P23471); assay: SPR
Chain of PTPRZ1 CA protein (Cusabio Technology LLC, CSB-YP019068HU) (P23471 36-300): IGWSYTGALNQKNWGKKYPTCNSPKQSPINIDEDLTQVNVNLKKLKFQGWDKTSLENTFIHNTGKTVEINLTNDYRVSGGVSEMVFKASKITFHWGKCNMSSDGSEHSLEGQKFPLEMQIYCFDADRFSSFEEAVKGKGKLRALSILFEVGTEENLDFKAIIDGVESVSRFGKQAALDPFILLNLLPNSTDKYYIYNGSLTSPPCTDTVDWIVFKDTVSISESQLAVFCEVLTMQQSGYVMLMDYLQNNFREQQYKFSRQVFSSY

Chain of carbonic anhydrase II protein (Sigma Aldrich, C2522) (P00921 whole entry): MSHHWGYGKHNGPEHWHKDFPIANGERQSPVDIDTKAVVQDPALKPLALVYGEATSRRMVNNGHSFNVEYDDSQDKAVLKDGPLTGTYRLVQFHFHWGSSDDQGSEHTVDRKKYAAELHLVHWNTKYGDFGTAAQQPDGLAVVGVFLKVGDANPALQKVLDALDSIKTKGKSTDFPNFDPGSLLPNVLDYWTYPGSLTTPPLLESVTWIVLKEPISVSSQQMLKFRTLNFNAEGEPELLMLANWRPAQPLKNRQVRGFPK

B1: anti-PTPRZ1 scFv RB473, scFv-Rabbit Fc (scFv, V domains shown)
VH: not shown
VL: QSVLTQPPSVSAAPGQKVTISCSGSSSNIGNNYVSWYQQLPGTAPKLLIYDNNKRPSGIPDRFSGSKSGTSATLGITGLQTGDEADYYCGTYDYIATRAVFGGGTKLTVL
**Q.** Does B1 bind [1]?
**A.** Result: no binding (tested: 800 nM)

**Q.** And the Kd [2]?
**A.** The Kd was 57.4 nM.
